The results in this text go back to publication PMC5391958, “New function of aldoxime dehydratase: Redox catalysis and the formation of an expected product” (PLoS ONE, 2017).

Common to all, as to assay: purified protein
Type in all cases: biochemical, Pseudomonas chlororaphis

Series [1] concerns T1, CCn1c(=NN=c2sc3cc(S(=O)(=O)O)ccc3n2CC)sc2cc(S(=O)(=O)O)ccc21.
T1 construct: recombinant from pET-oxdA (mutants in pET-24a(+)), E. coli BL21-CodonPlus(DE3)-RIL, purified heme enzyme; Mr 40,127; no tag mentioned
The note with it: apparent.

For a further series, the system named is T2, COc1ccccc1O.
T2 construct: recombinant from pET-oxdA (mutants in pET-24a(+)), E. coli BL21-CodonPlus(DE3)-RIL, purified heme enzyme; Mr 40,127; no tag mentioned
The following applies: apparent.

Substrate in series [2]: CCn1c(=NN=c2sc3cc(S(=O)(=O)O)ccc3n2CC)sc2cc(S(=O)(=O)O)ccc21
The following applies: apparent, 25 mM H2O2, 100 mM potassium phosphate pH 7.0, 30°C.

Substrate in series [3]: COc1ccccc1O
The following applies: apparent, 100 mM H2O2, 100 mM potassium phosphate pH 7.0, 30°C.

Where [4] appears, read: 10 mM H2O2, 100 mM potassium phosphate pH 7.0, 30°C.
The mark [5] stands for this setting: 25 mM H2O2, 100 mM potassium phosphate pH 7.0, 30°C.
Where [6] appears, read: 100 mM H2O2, 100 mM potassium phosphate pH 7.0, 30°C.

Turning to “OxdA(WT); aldoxime dehydratase (OxdA) (Pseudomonas chlororaphis subsp. chlororaphis; H320A)”, in series [1] (setting [4]), the Km came to 210 ± 30 µM, the Vmax amounted to 1.3 µmol/min/mg, the kcat turned out to be 0.85 ± 0.07 s⁻¹ and the kcat/Km worked out at 4000 M⁻¹ s⁻¹. In the series with COc1ccccc1O (setting [5]), the Km is 840 ± 170 µM, the Vmax is 1.2 µmol/min/mg, the kcat was 0.81 ± 0.05 s⁻¹ and the kcat/Km is 970 M⁻¹ s⁻¹.

On to “OxdA(WT); aldoxime dehydratase (OxdA) (Pseudomonas chlororaphis subsp. chlororaphis; H320D)”, for which, in series [1] (setting [5]), the Km came out at 120 ± 20 µM, the Vmax was found to be 33 µmol/min/mg, the kcat turned out to be 22 ± 1 s⁻¹ and the kcat/Km came out at 190000 M⁻¹ s⁻¹. In the series on COc1ccccc1O (setting [6]), the Michaelis constant (Km) worked out at 1000 ± 400 µM, the Vmax turned out to be 50 µmol/min/mg, the kcat was determined as 33 ± 3 s⁻¹ and the kcat/Km was 32000 M⁻¹ s⁻¹.

B1: OxdA(WT); aldoxime dehydratase (OxdA) (Pseudomonas chlororaphis subsp. chlororaphis) (protein)
chain: MESAIDTHLKCPRTLSRRVPEEYQPPFPMWVARADEQLQQVVMGYLGVQYRGEAQREAALQAMRHIVSSFSLPDGPQTHDLTHHTDSSGFDNLMVVGYWKDPAAHCRWLRSAEVNDWWTSQDRLGEGLGYFREISAPRAEQFETLYAFQDNLPGVGAVMDSTSGEIEEHGYWGSMRDRFPISQTDWMKPTNELQVVAGDPAKGGRVVIMGHDNIALIRSGQDWADAEAEERSLYLDEILPTLQDGMDFLRDNGQPLGCYSNRFVRNIDLDGNFLDVSYNIGHWRSLEKLERWAESHPTHLRIFVTFFRVAAGLKKLRLYHEVSVSDAKSQVFEYINCHPHTGMLRDAVVAPT
notes: recombinant from pET-oxdA (mutants in pET-24a(+)), E. coli BL21-CodonPlus(DE3)-RIL, purified heme enzyme; Mr 40,127; no tag mentioned
Regarding B1, in “purified protein [2]”, the Km was determined as 210 ± 40 µM, the Vmax turned out to be 3.4 µmol/min/mg, the kcat was 2.3 ± 0.1 s⁻¹ and the kcat/Km amounted to 11000 M⁻¹ s⁻¹. Also, in “purified protein [3]”, the Michaelis constant (Km) was found to be 26 ± 10 µM, the Vmax was found to be 20 µmol/min/mg, the kcat came to 14 ± 1 s⁻¹ and the catalytic efficiency (kcat/Km) was found to be 530000 M⁻¹ s⁻¹.

The term Km denotes the concentration of substrate that gives half-maximal velocity. What is called Vmax is the top rate of the reaction or transport when substrate is in excess. A word on the kcat: it is the number of substrate molecules converted per active site and unit of time at saturation. A word on the kcat/Km: it is the turnover number divided by the Michaelis constant.
